Measured values published in PMC9941103.
Where “and” joins values, the source holds several entries; their conditions need not be identical. Identical values can stand only once. One block for each molecule: values may come before it.

Assays:
[1] = biological target: SNAP25(CtoS), cysteine-free variant of SNAP25 (UniProt P60881); assay: cross-linking; 10 µM of one protein alone, 0-1.5 mM BS3, 1 h at 25 °C; gel electrophoresis, Coomassie staining and western blot
[2] = biological target: SNAP25(CtoS), cysteine-free variant of SNAP25 (UniProt P60881); assay: native MS; 10 µM of one protein alone, 200 mM ammonium acetate
[3] = biological target: Synaptobrevin-2 variant lacking the transmembrane helix, Syb(1-96) (UniProt P63045); assay: native MS; SNAP25 and Synaptobrevin-2 mixed 1:1; 200 mM ammonium acetate; details: scale: SNAP25 per Synaptobrevin-2
[4] = biological target: Synaptobrevin-2 variant lacking the transmembrane helix, Syb(1-96) (UniProt P63045); assay: native MS; SNAP25 and Synaptobrevin-2 mixed 1:2 and 2:1; details: scale: SNAP25 per Synaptobrevin-2
[5] = biological target: pre-assembled binary SNAP25:Synaptobrevin-2 complex (2:1) (UniProt P60881); assay: native MS; SNAP25 and Synaptobrevin-2 mixed 1:1; 200 mM ammonium acetate
[6] = biological target: T1, full-length Complexin-1, P63041; assay: native MS; 10 µM of one protein alone, 200 mM ammonium acetate; details: remark: other sources report otherwise
T1 chain: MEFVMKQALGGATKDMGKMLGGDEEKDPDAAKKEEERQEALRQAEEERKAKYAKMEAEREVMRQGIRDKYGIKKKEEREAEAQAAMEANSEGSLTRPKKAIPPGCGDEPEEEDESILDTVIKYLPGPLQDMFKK

UniProt P63045, sequence (P63045 1-96, change not shown): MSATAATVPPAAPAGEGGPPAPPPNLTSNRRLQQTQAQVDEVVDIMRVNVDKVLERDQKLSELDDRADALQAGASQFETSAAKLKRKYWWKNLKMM

Molecule: SNAP25(CtoS), cysteine-free variant of SNAP25 (from UniProt P60881 1-206)
stoichiometry N [1]: < 5

Molecule: pre-assembled binary SNAP25:Synaptobrevin-2 complex (2:1) (from UniProt P60881 1-206; P63045 1-96)
stoichiometry N [5]: 2

Second part, the molecule after the results:

stoichiometry N [2]: 2 and 3
stoichiometry N [3]: 2
stoichiometry N [4]: 2
Molecule: SNAP25(CtoS), cysteine-free variant of SNAP25 (from UniProt P60881 1-206) (natural protein)

stoichiometry N [6]: 2 and 3
B1: full-length Complexin-1, P63041 1-134 (natural protein)
chain: T1 chain
